According to PMC3873549, “Plant Acyl-CoA:Lysophosphatidylcholine Acyltransferases (LPCATs) Have Different Specificities in Their Forward and Reverse Reactions” (The Journal of Biological Chemistry, 2013):

Substrate: CCCCCCCC/C=C\CCCCCCCC(=O)SCCNC(=O)CCNC(=O)[C@H](O)C(C)(C)COP(=O)(O)OP(=O)(O)OC[C@H]1O[C@@H](n2cnc3c(N)ncnc32)[C@H](O)[C@@H]1OP(=O)(O)O
Test: cells, lysate or membranes
Type: cell-based, Arabidopsis thaliana
Settings: acyl acceptor sn-1-18:1-LPC, pH 7.2, 30 °C, labelled compound

B1: AtLPCAT1 (Arabidopsis thaliana) (protein)
chain: MDMSSMAGSIGVSVAVLRFLLCFVATIPVSFACRIVPSRLGKHLYAAASGAFLSYLSFGFSSNLHFLVPMTIGYASMAIYRPKCGIITFFLGFAYLIGCHVFYMSGDAWKEGGIDSTGALMVLTLKVISCSMNYNDGMLKEEGLREAQKKNRLIQMPSLIEYFGYCLCCGSHFAGPVYEMKDYLEWTEGKGIWDTTEKRKKPSPYGATIRAILQAAICMALYLYLVPQYPLTRFTEPVYQEWGFLRKFSYQYMAGFTARWKYYFIWSISEASIIISGLGFSGWTDDASPKPKWDRAKNVDILGVELAKSAVQIPLVWNIQVSTWLRHYVYERLVQNGKKAGFFQLLATQTVSAVWHGLYPGYMMFFVQSALMIAGSRVIYRWQQAISPKMAMLRNIMVFINFLYTVLVLNYSAVGFMVLSLHETLTAYGSVYYIGTIIPVGLILLSYVVPAKPSRPKPRKEE
B1 was tested. Which Km did it give?
The Km was 18 µM.
